The values that follow come from patent US11447809B2, “Evolution of tRNA synthetases” (President and Fellows of Harvard College, priority 2017, dated 2022).

The test system of the experiment is luciferase position 361 and sfGFP amber suppression. In words: Amber suppression assays using several different reporters (luciferase and sfGFP). The experiment is classed as cell-based, E. coli. The conditions noted are these: BocK; IPYE variant vs parent enzyme; FIGS. 9B-9D. On the procedure: S1030 cells (25 μL) were electroporated with the appropriate plasmid(s) and recovered in SOC media (New England Biolabs) for 1 h while shaking at 37° C. Transformed cells were plated and grown overnight at 37° C. on LB agar containing the antibiotics required for plasmid maintenance. Single colonies were used to inoculate 2-3 mL of DRM containing antibiotics and were grown overnight at 37° C. while shaking at 230 rpm. The saturated overnight cultures were diluted 100-fold in a 96-well deep well plate using 1 mL of DRM containing the required antibiotic and supplemented with 1 mM ncAA where denoted. […] The plate continued to incubate with shaking at 37° C. for an additional 2-3 h until maximum luminescence signal was observed. Each luminescence measurement was taken on 150 μL of each culture, which had been transferred to a 96-well black wall, clear bottom plate (Costar). The A600 and luminescence measurements from each well were taken using an Infinite M1000 Pro microplate reader (Tecan). […] The raw luminescence value from each well was divided by the background-subtracted A600 value of the corresponding well to provide the luminescence value normalized to cell density. […]

B1: MmPylRS(IPYE): M. mazei PylRS with transplanted PACE mutations V31I, T56P, H62Y, A100E (protein, UniProt Q8PWY1 1-454, looked up, variant V31I T56P H62Y A100E)
Pyrrolysine--tRNA ligase: MDKKPLNTLISATGLWMSRTGTIHKIKHHEISRSKIYIEMACGDHLVVNNSRSSRPARALRYHKYRKTCKRCRVSDEDLNKFLTKANEDQTSVKVKVVSEPTRTKKAMPKSVARAPKPLENTEAAQAQPSGSKFSPAIPVSTQESVSVPASVSTSISSISTGATASALVKGNTNPITSMSAPVQASAPALTKSQTDRLEVLLNPKDEISLNSGKPFRELESELLSRRKKDLQQIYAEERENYLGKLEREITRFFVDRGFLEIKSPILIPLEYIERMGIDNDTELSKQIFRVDKNFCLRPMLAPNLYNYLRKLDRALPDPIKIFEIGPCYRKESDGKEHLEEFTMLNFCQMGSGCTRENLESIITDFLNHLGIDFKIVGDSCMVYGDTLDVMHGDLELSSAVVGPIPLDREWGIDKPWIGAGFGLERLLKVKHDFKNIKRAARSESYYNGISTNL
In the case of B1, the “activity in amber suppression assays using several different reporters” value is recorded as “improved, albeit more modestly”.

B2: MbPylRS(IPYE): M. barkeri PylRS with transplanted PACE mutations V31I, T56P, H62Y, A100E (protein, UniProt Q6WRH6 1-419, looked up, variant V31I T56P H62Y A100E)
Pyrrolysine--tRNA ligase: MDKKPLDVLISATGLWMSRTGTLHKIKHHEISRSKIYIEMACGDHLVVNNSRSCRPARAFRYHKYRKTCKRCRVSDEDINNFLTRSTESKNSVKVRVVSEPKVKKAMPKSVSRAPKPLENSVSAKASTNTSRSVPSPAKSTPNSSVPASAPAPSLTRSQLDRVEALLSPEDKISLNMAKPFRELEPELVTRRKNDFQRLYTNDREDYLGKLERDITKFFVDRGFLEIKSPILIPAEYVERMGINNDTELSKQIFRVDKNLCLRPMLAPTLYNYLRKLDRILPGPIKIFEVGPCYRKESDGKEHLEEFTMVNFCQMGSGCTRENLEALIKEFLDYLEIDFEIVGDSCMVYGDTLDIMHGDLELSSAVVGPVSLDREWGIDKPWIGAGFGLERLLKVMHGFKNIKRASRSESYYNGISTNL
Regarding B2, the “activity in amber suppression assays using several different reporters” value is listed as “dramatically enhanced”.
